Experimental data as given in patent US5523209.

Assays:
[1] = target: integrin α5 β1 on CHO cells (hamster); test: binding of soluble 125I-Fn to CHO cells
[2] = target: integrin α5 β1 on CHO cells (hamster); test: 125I-Fn binding to CHO cells washed free of NaN3 and 2-deoxyglucose

- Kd [1]: 100 nM
- percent of the high affinity binding restored after washout of the metabolic inhibitors [2]: 75%
Substance: fibronectin (from UniProt P02751) (ligand)
